Assay results taken from US20100254989A1.

Experiments:
human c-Met ECD (human) = human c-Met ECD (human) (UniProt P08581); experiment: SPR (Biacore T100), antibody captured by anti-Fc gamma, c-Met ECD in solution, 25 C
[1] = molecular target: c-Met receptor on OVCAR-8 cells (human) (UniProt P08581); experiment: cell-based or functional assay

Substance: BsAB01, trivalent bispecific <ErbB1-c-Met> antibody (full length cetuximab with one c-Met 5D5 single chain Fab fragment at the C-terminus of the knob heavy chain) (bispecific antibody)
- Kd (human c-Met ECD (human)): 5.5 nM
- % Internalization of c-Met after 2 h on OVCAR-8 cells (=100-% antibody on cell surface) [1]: -14%
- % c-Met receptor on OVCAR-8 cell surface measured after 2 h [1]: 114%
